Measured values taken from PMC3128532.

Biological target: MBP-tagged TANGO1-Coil2 (amino acids 1440-1650) (human) (UniProt Q5JRA6)
Assay: pull-down

Chain of UniProt Q5JRA6 (Q5JRA6 1440-1650): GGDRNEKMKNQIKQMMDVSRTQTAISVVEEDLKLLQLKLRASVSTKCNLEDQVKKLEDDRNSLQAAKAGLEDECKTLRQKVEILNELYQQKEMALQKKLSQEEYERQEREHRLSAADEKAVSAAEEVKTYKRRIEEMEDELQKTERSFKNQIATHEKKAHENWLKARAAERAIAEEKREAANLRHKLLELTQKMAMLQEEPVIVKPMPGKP

## ColdTF-tagged cTAGE5-Coil2 (amino acids 301-650) (domain or fragment)
  stoichiometry N: 1
